{"source": "patent US20230295324A1", "binders": {"B1": {"name": "PR002075 (antibody, human IgG1, V domains shown)", "VH": "EVQLVETGGGLIQPGGSLRLSCAASGFTFSSYAMSWVRQAPGKGLEWVSAISGSGGNTYYADSVRGRFTISRDNSKNTLYLQMNSLRAEDTAVYYCANGITGTTDVDYWGQGTRVTVSS"}}, "key": {"[1]": {"target": "human OX40 on cells (CHO-K1/hu OX40) (human) (UniProt P43489)", "sequence (P43489 29-277)": "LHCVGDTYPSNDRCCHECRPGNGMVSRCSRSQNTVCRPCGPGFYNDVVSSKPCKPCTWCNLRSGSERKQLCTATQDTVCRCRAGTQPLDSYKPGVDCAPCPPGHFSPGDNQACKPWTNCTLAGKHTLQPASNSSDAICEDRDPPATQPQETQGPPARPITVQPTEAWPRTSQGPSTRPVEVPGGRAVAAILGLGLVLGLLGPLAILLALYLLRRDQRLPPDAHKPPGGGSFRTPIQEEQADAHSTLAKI", "assay": "FACS, blocking of biotin-human OX40L on CHO-K1/hu OX40 cells"}, "[2]": {"target": "human OX40 on cells (CHO-K1/hu OX40) (human) (UniProt P43489)", "assay": "FACS, CHO-K1/hu OX40 cells"}, "[3]": {"target": "human OX40 on cells (CHO-K1/hu OX40) (human) (UniProt P43489)", "assay": "cell-based or functional assay"}}, "data": [{"binder": "B1", "values": [{"measurement": "Maximum inhibition rate (%)", "setting": "[1]", "result": 0, "unit": "%"}, {"measurement": "Maximum MFI", "setting": "[2]", "result": 501, "unit": "MFI"}, {"measurement": "EC50, HEK293/OX40/NF-kb luciferase reporter", "setting": "[3]", "result": 136, "unit": "nM"}, {"measurement": "Maximum fluorescence signal value, HEK293/OX40/NF-kb luciferase reporter", "setting": "[3]", "result": 140000, "unit": "luminescence"}]}]}
